The values below come from publication PMC10536470, “Reducing the virulence of Pseudomonas aeruginosa by using multiple quorum-quenching enzymes” (Journal of Industrial Microbiology & Biotechnology, 2023).

A word on the Km: it is the substrate concentration at which the rate is half of its maximum. Broadly, the kcat is the maximal rate divided by the concentration of active sites.

For the data set, the system named is CCCCCCCCCC(=O)CC(=O)N[C@H]1CCOC1=O. Nature of the data set: purified protein. The class given is biochemical, Chryseobacterium sp. StRB126. The following applies: bicine 2.5 mM pH 8.0, 50 mM NaCl, 0.2 mM ZnCl2, 0.5% DMSO, 30 °C, substrate 0.2-2 mM.

AidC (Chryseobacterium sp. StRB126): the Km was found to be 560 ± 10 µM and the kcat amounted to 250 ± 18 s⁻¹.
